In patent US20050042220A1 (GENETICS INSTITUTE, published 2005):
Each block holds one binder with its values, some of them ahead of it.

B1: human IL-22R extracellular domain-Fc fusion homodimer (Fc fusion)
chain: HAPEDPSDLLQHVKFQSSNFENILTWDSGPEGTPDTVYSIEYKTYGERDWVAKKGCQRITRKSCNLTVETGNLTELYYARVTAVSAGGRSATKMTDRFSSLQHTTLKPPDVTCISKVRSIQMIVHPTPTPIRAGDGHRLTLEDIFHDLFYHLELQVNRTYQMHLGGKQREYEFFGLTPDTEFLGTIMICVPTWAKESAPYMCRVKTLPDRTWTAGSGSGSG
notes: extracellular domain; Used as CHO conditioned medium, not purified; also called IL-22R-Fc; IL-22RECD-Fc; not shown: human IgG1 Fc
B2: biotinylated N terminal His/Flag tagged human IL-22 (ligand)
chain: GSGHHHHHHGSGDYKDDDDKAPISSHCRLDKSNFQQPYITNRTFMLAKEASLADNNTDVRLIGEKLFHGVSMSERCYLMKQVLNFTLEEVLFPQSDRFQPYMQEVVPFLARLSNRLSTCHIEGDDLHIQRNVQKLKDTVKKLGESGEIKAIGELDLLFMSLRNACI
modifications: biotinylated with EZ-Link Sulfo-NHS-Biotin (sites not given)
notes: also called bio-IL-22; biotinylated IL-22

Columns and labels:
[1] = target: B2; assay: ELISA, bio-IL-22 on streptavidin plates, IL-22R-Fc titrated (FIG. 6B)
Method: (§1) FIG. 6B depicts the results form an ELISA assay performed in the opposite format, whereby 100 µl of 1 µg/ml biotinylated IL-22 was added to Reacti-Bind 96 well streptavidin-coated plates (Pierce, Rockford, Ill.) for one hour. After washing, Fc fusion receptor was added at various concentrations to the plates for one hour, washed and then detected with goat anti-human IgG-HRP. In FIG. 6A, fifty ng/ml of total Fc in conditioned media (CM) from CHO cells expressing either IL-22R-Fc (▪) or IL-10R2-Fc (O) was captured onto anti-human IgG coated wells. Biotinylated IL-22 (bio-IL-22) at various concentrations was then added to the wells. Bound bio-IL-22 was subsequently detected using streptavidin-HRP. In FIG. 6B, bio-IL-22 (1 μg/ml) was captured onto streptavidin plates. Various concentrations of either IL-22R-Fc (▪) or IL-10R2-Fc (O) in diluted CHO. CM was then added to the wells. Bound receptor Fc was subsequently detected using goat anti-human IgG-HRP.
IL-22 binding to the extracellular domain (ECD) of IL-22R and IL-10R2 was evaluated using two ELISA formats. In the first version, receptor-Fc fusion proteins were immobilized via the Fc domain on anti-human IgG coated plates. Biotinylated IL-22 was then added and detected with streptavidin-HRP. […] Receptor-Fc were then added and detected with HRP-conjugated, anti-hIgG.

[2] = target: B1; assay: ELISA, IL-22R-Fc captured on anti-human IgG, bio-IL-22 titrated (FIG. 6A)
Method: (§2) After a final set of washes, 100 μl of TMB Microwell peroxidase substrate (BioFX, Owings Mills, Md.) was added for 20 minutes and the reaction stopped with 100 μl 2N H₂SO₄. Colorimetric detection of the peroxidase product was done at 450 nm in a Molecular Devices (Sunnyvale, Calif.) microplate reader.
as §1, with “Various concentrations of either IL-22R-Fc (▪) or IL-10R2-Fc (O) in diluted CHO. CM was then added to the wells.” left out
IL-22 binding to the extracellular domain (ECD) of IL-22R and IL-10R2 was evaluated using two ELISA formats. […] Biotinylated IL-22 was then added and detected with streptavidin-HRP. […] Receptor-Fc were then added and detected with HRP-conjugated, anti-hIgG.

[3] = target: T1, IL-22R-Fc/IL-10R2-Fc heterodimer from co-expressing CHO cells (human, UniProt Q8N6P7 16-228; Q08334 20-220); assay: ELISA, 50 ng/ml total Fc from co-expressing CHO captured on anti-human IgG, bio-IL-22 titrated (FIG. 8A)
T1 construct: extracellular domain; also called IL-22R/IL-10R2-Fc heterodimer; IL-22R-Fc/IL-10R2-Fc complex; not shown: human IgG1 Fc
T1 sequence 1: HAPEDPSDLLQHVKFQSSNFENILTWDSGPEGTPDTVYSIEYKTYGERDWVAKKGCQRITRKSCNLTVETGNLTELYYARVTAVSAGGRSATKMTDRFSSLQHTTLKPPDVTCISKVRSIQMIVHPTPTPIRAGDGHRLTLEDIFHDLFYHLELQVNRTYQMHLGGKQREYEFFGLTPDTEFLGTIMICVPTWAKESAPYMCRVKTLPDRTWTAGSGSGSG
T1 sequence 2: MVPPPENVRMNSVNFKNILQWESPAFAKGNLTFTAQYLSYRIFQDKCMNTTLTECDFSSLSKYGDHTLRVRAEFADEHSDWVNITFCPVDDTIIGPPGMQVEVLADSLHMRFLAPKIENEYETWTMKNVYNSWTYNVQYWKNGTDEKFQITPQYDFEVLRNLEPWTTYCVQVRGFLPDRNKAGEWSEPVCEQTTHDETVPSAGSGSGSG
Method: The results shown in FIGS. 6A, 8A-8B, 9A-9B, 10B-10C and 11A-11C were obtained from ELISA assays where receptor Fc from CHO CM were first immobilized via an anti-hIgG coat. Flat bottom, 96-well ELISA plates (Costar, Cambridge, Mass.) were coated overnight at 4° C. with 100 μl goat anti-human IgG antibody (Southern Biotech Associates, Inc., Birmingham, Ala.) at 1 μg/ml in 0.1 M sodium carbonate buffer (pH 9.6). The plates were washed twice with 200 pi phosphate-buffered saline containing 0.05% Tween 20 (PBS-T), blocked with 100 μl 1% BSA (Sigma, St. Louis, Mo.) in PBS-T for 1 hour and washed three times. Following by one hour sequential incubations (100 ul), each separated by three washes, were then employed: a given receptor fusion(s) at a fixed concentration or serially diluted, biotinylated IL-22 (bio-IL-22) at a fixed concentration or serially diluted, and then 1/10,000 dilution of streptavidin-horse radish peroxidase (HRP) (Southern Biotech Associates, Inc., Birmingham, Ala.). […] Colorimetric detection of the peroxidase product was done at 450 nm in a Molecular Devices (Sunnyvale, Calif.) microplate reader.
IL-22 binding to the ECD of IL-22R and IL-10R2 secreted as Fc heterodimer was then evaluated. […] The ability of cytokine to bind was then evaluated using various concentrations of bio-IL-22 as the detector (FIG. 8A). […]

[4] = target: B2; assay: competition ELISA (printed as ND50): IL-22BP-Fc pre-incubated with bio-IL-22 30 ng/ml, binding to captured IL-22R-Fc; IL-22R-Fc homodimer immobilized (FIG. 11A)
Method: as §2
(§3) For certain ELISA assays of the above format where both the receptor Fc and bio-IL-22 are at a fixed concentration, IL-10R2-Fc was added at various concentrations either before or with bio-IL-22 (FIG. 9A) or after the bio-IL-22 (FIG. 9B). For other ELISA assays of the above format where the indicated receptor Fc and bio-IL-22 are also at a fixed concentration, antibodies (FIG. 10B-10C., 11C) or IL-22BP (FIG. 11A-11B) were added at various concentrations after a pre-incubation with the bio-IL-22 for 30 minutes. For ELISA assays in which the recruitment of IL-10R2-Fc to the IL-22/IL-22R complex was detected directly (data not shown, experimental design of FIG. 9A), non-biotinylated IL-22 was added to the ELISA and either polyclonal goat anti-hIL-10R2 or a mouse monoclonal anti-hIL-10R2 (R&D Systems, Inc, Minneapolis, Minn.) was used as detector.
(§4) IL-22 binding protein (IL-22BP) is a soluble ‘receptor’ for IL-22 that has low homology to the extracellular domain of IL-22R. […]

[5] = target: B2; assay: competition ELISA (printed as ND50): IL-22BP-Fc pre-incubated with bio-IL-22 5 ng/ml, binding to captured IL-22R/IL-10R2-Fc heterodimer (FIG. 11B by its legend); IL-22R/IL-10R2-Fc heterodimer immobilized (FIG. 11B; printed as FIG. 6B)
Method: Colorimetric detection of the peroxidase product was done at 450 nm in a Molecular Devices (Sunnyvale, Calif.) microplate reader.
as §3
IL-22 binding protein (IL-22BP) is a soluble ‘receptor’ for IL-22 that has low homology to the extracellular domain of IL-22R. It neutralizes signal transduction mediated by IL-22 (Dumoutier, L. et al. (2001) J Immunol 166(12):7090-5; Kotenko, S. V. et al. (2001) J Immunol 166(12):7096-103; Xu, W. et al. (2001) Proc Natl Acad Sci USA 98(17):9511-6; Wei C-C et al. (2003) Genes & Immunity 4:204-21117). […]

[6] = target: B2; assay: blocking ELISA: IL-22BP-Fc pre-incubated 30 min with bio-IL-22 (5 ng/ml), added to 50 ng/ml total Fc of co-expressed IL-22R-Fc/IL-10R2-Fc captured on anti-human IgG wells; bound bio-IL-22 read with streptavidin-HRP, A450; blocked partner IL-22R-Fc/IL-10R2-Fc
Method: as §2, §3, §4

[7] = target: B2; assay: blocking ELISA: IL-22BP-Fc pre-incubated 30 min with bio-IL-22 (30 ng/ml), added to 50 ng/ml IL-22R-Fc captured on anti-human IgG wells; bound bio-IL-22 read with streptavidin-HRP, A450; blocked partner IL-22R-Fc
Method: as §2, §3, §4

Binder: B1
EC50 [1]: 0.006 µg/mL

Binder: B2
EC50 [2]: 0.02 µg/mL
fold less bio-IL-22 needed for a comparable signal than with immobilized IL-22R-Fc homodimer [3]: 8 fold

IC50 [4]: 4 nM
IC50 [5]: 2 nM
IC50 (read off the curve) [6]: ~0.2 nM
IC50 (read off the curve) [7]: ~0.5 nM
B3: human IL-22 binding protein-Fc fusion (Fc fusion)
chain: TQSTHESLKPQRVQFQSRNFHNILQWQPGRALTGNSSVYFVQYKIYGQRQWKNKEDCWGTQELSCDLTSETSDIQEPYYGRVRAASAGSYSEWSMTPRFTPWWETKIDPPVMNITQVNGSLLVILHAPNLPYRYQKEKNVSIEDYYELLYRVFIINNSLEKEQKVYEGAHRAVEIEALTPHSSYCVVAEIYQPMLDRRSQRSEERCVEIPAGSGSGSG
notes: Fc fusion homodimer, used as CHO conditioned medium; also called IL-22BP-Fc; huIL22BP-huFc; not shown: human IgG1 Fc
